Source: paper PMC8103094, “Androgen receptor (AR) antagonism triggers acute succinate‐mediated adaptive responses to reactivate AR signaling”

Molecular target: Androgen receptor DNA-binding domain (AR-DBD) (UniProt P10275 560-632)
Assay: EMSA; Odyssey infrared EMSA kit (LI-COR): 2.5 mM DTT/0.25% Tween 20, poly(dI.dC), room temperature 30 min, increasing protein; 6% TBE native gel; salt and pH not stated
Details: protein: recombinant; chain copies: 2; label: 5' IRDye700 on both strands; blunt

Chain of Androgen receptor DNA-binding domain (AR-DBD) (P10275 560-632): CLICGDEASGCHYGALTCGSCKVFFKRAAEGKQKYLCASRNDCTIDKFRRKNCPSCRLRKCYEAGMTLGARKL

Binder	binding result
SDHB ARE probe (dsDNA) DNA 1: AGAGCTCCCTGTACTTTCCCAACA DNA 2: TGTTGGGAAAGTACAGGGAGCTCT	binds
SDHA ARE probe (dsDNA) DNA 1: GCGACTTGTGCTGGCTGAGGGA DNA 2: TCCCTCAGCCAGCACAAGTCGC	binds
